Results reported in paper doi:10.1101/2024.04.30.591897 (bioRxiv, 2024).

Target: LC3B (1-120, G120C) (human, UniProt Q9GZQ8 1-120, G120C)
Test: pull-down

binding result: binds
B1: GST-ALG2^ΔN23 (domain or fragment)
chain: DQSFLWNVFQRVDKDRSGVISDTELQQALSNGTWTPFNPVTVRSIISMFDRENKAGVNFSEFTGVWKYITDWQNVFRTYDRDNSGMIDKNELKQALSGFGYRLSDQFHDILIRKFDRQGRGQIAFDDFIQGCIVLQRLTDIFRRYDTDQDGWIQVSYEQYLSMVFSIV
